Tests used:
[1] = target: baculo-derived HPV16 VLPs in PBS (native form) (Human papillomavirus type 16) (UniProt P03101); experiment: ELISA, plates coated with baculo-derived HPV16 VLPs in PBS; antibody stock 35 µg/ml
[2] = target: unfolded HPV16 VLP (baculo-derived HPV16 VLPs in 0.2M carbonate buffer pH9.5) (Human papillomavirus type 16) (UniProt P03101); experiment: ELISA, plates coated with VLP in carbonate buffer pH 9.5; antibody stock 35 µg/ml

With HPV16-L1 mAb CAMVIR-1 (antibody) as the substance, how does the IgG titer (reciprocal of the highest sample dilution that yielded an OD492 four times that of preimmune sample) (reciprocal dilution) [1] read?
Its IgG titer (reciprocal of the highest sample dilution that yielded an OD492 four times that of preimmune sample) (reciprocal dilution) is 16000.

And the IgG titer (reciprocal of the highest sample dilution that yielded an OD492 four times that of preimmune sample) (reciprocal dilution) [2]?
The IgG titer (reciprocal of the highest sample dilution that yielded an OD492 four times that of preimmune sample) (reciprocal dilution) was 80000.

Reference: US6458368
